T1: Chryseobacterium defluvii deamidase polypeptide, wildtype, with His-tag (Chryseobacterium defluvii)
T1 sequence: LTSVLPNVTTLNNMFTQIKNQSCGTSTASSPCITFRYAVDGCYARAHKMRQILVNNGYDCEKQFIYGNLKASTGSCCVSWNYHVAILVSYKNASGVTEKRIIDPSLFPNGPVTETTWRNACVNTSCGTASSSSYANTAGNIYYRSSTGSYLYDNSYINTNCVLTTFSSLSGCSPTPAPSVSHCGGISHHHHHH

T2: Chryseobacterium sp-62563 deamidase polypeptide (second polypeptide, deamidase domain), wildtype (Chryseobacterium sp-62563)
T2 sequence: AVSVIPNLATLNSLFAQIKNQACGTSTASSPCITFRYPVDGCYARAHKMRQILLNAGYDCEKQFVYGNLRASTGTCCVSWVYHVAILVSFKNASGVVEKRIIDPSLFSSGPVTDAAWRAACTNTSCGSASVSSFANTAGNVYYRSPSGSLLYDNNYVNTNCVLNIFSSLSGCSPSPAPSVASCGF

T3: Chryseobacterium gambrini deamidase polypeptide, wildtype, with His-tag (Chryseobacterium gambrini)
T3 sequence: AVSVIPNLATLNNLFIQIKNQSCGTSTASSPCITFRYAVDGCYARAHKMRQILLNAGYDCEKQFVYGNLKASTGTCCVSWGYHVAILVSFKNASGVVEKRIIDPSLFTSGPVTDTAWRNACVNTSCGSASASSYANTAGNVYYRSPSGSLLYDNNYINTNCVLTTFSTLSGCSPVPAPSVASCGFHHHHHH

B1: Chryseobacterium defluvii propeptide Y47T (protein)
chain: ATNQDVVGKENTSNHVAARDFGKTVPVGINEENGTLKVSFILSAQFTEIKPSKENEEYISLIRQAIQNESPIHVFMKLNSNEIVKVEKGTEEDVKYFRSILTKEVKEENRK
B2: Chryseobacterium defluvii propeptide L101A (protein)
chain: B1 chain with T47Y, L101A
B3: Chryseobacterium defluvii propeptide L101G (protein)
chain: B1 chain with T47Y, L101G
B4: Chryseobacterium defluvii propeptide L101K (protein)
chain: B1 chain with T47Y, L101K
B5: Chryseobacterium sp-62563 propeptide N1C (protein)
chain: CQDPNLVAKESNETAMKDFGKTVPVGIEKEDGKFKISFMVTAQPYEIKDSKENAAYISMIKTAVENETPIHVFLKANTNEIAKVDKATDDDIRYFKSVFTKEVKEENRK
B6: Chryseobacterium sp-62563 propeptide K101W (protein)
chain: B5 chain with C1N, K101W
B7: Chryseobacterium sp-62563 propeptide E10P (protein)
chain: B5 chain with C1N, E10P
B8: Chryseobacterium sp-62563 propeptide R108N (protein)
chain: B5 chain with C1N, R108N
B9: Chryseobacterium sp-62563 propeptide K101N (protein)
chain: B5 chain with C1N, K101N
B10: Chryseobacterium sp-62563 propeptide T100E (protein)
chain: B5 chain with C1N, T100E
B11: Chryseobacterium sp-62563 propeptide K101M (protein)
chain: B5 chain with C1N, K101M
B12: Chryseobacterium sp-62563 propeptide K101G (protein)
chain: B5 chain with C1N, K101G
B13: Chryseobacterium sp-62563 propeptide K109C (protein)
chain: B5 chain with C1N, K109C
B14: Chryseobacterium sp-62563 propeptide T14P (protein)
chain: B5 chain with C1N, T14P
B15: Chryseobacterium sp-62563 propeptide G20D (protein)
chain: B5 chain with C1N, G20D
B16: Chryseobacterium sp-62563 propeptide K101P (protein)
chain: B5 chain with C1N, K101P
B17: Chryseobacterium sp-62563 propeptide D18G (protein)
chain: B5 chain with C1N, D18G
B18: Chryseobacterium sp-62563 propeptide K101D (protein)
chain: B5 chain with C1N, K101D
B19: Chryseobacterium sp-62563 propeptide K101Y (protein)
chain: B5 chain with C1N, K101Y
B20: Chryseobacterium sp-62563 propeptide K101I (protein)
chain: B5 chain with C1N, K101I
B21: Chryseobacterium sp-62563 propeptide E13C (protein)
chain: B5 chain with C1N, E13C
B22: Chryseobacterium sp-62563 propeptide K109G (protein)
chain: B5 chain with C1N, K109G
B23: Chryseobacterium sp-62563 propeptide T100Q (protein)
chain: B5 chain with C1N, T100Q
B24: Chryseobacterium sp-62563 propeptide D18R (protein)
chain: B5 chain with C1N, D18R
B25: Chryseobacterium sp-62563 propeptide F19P (protein)
chain: B5 chain with C1N, F19P
B26: Chryseobacterium sp-62563 propeptide K101C (protein)
chain: B5 chain with C1N, K101C
B27: Chryseobacterium sp-62563 propeptide M16G (protein)
chain: B5 chain with C1N, M16G
B28: Chryseobacterium sp-62563 propeptide K101E (protein)
chain: B5 chain with C1N, K101E
B29: Chryseobacterium sp-62563 propeptide D18M (protein)
chain: B5 chain with C1N, D18M
B30: Chryseobacterium sp-62563 propeptide K101S (protein)
chain: B5 chain with C1N, K101S
B31: Chryseobacterium sp-62563 propeptide D18P (protein)
chain: B5 chain with C1N, D18P
B32: Chryseobacterium sp-62563 propeptide D18K (protein)
chain: B5 chain with C1N, D18K
B33: Chryseobacterium sp-62563 propeptide F19L (protein)
chain: B5 chain with C1N, F19L
B34: Chryseobacterium sp-62563 propeptide K101L (protein)
chain: B5 chain with C1N, K101L
B35: Chryseobacterium sp-62563 propeptide K101A (protein)
chain: B5 chain with C1N, K101A
B36: Chryseobacterium gambrini propeptide I23S (protein)
chain: NQDPNLVVKENNENAMRDFGSTSPVGIQKEGNVLKVSFIISAQFYEIKDSKENEAFISMIKSAIENETPVHVFLKKNSNEIAKVEKATDEDVTYFKSIFTKEVKEENRK
B37: Chryseobacterium gambrini propeptide F99K (protein)
chain: B36 chain with S23I, F99K
B38: Chryseobacterium gambrini propeptide F38C (protein)
chain: B36 chain with S23I, F38C
B39: Chryseobacterium gambrini propeptide Y94P (protein)
chain: B36 chain with S23I, Y94P
B40: Chryseobacterium gambrini propeptide Y45T (protein)
chain: B36 chain with S23I, Y45T
B41: Chryseobacterium gambrini propeptide F99G (protein)
chain: B36 chain with S23I, F99G
B42: Chryseobacterium gambrini propeptide F99A (protein)
chain: B36 chain with S23I, F99A

Where a chain is given by its changes, count along the chain named. Names may count otherwise.

The target in one assay is Chryseobacterium culicis deamidase polypeptide, wildtype, with His-tag (Chryseobacterium culicis). As to the kind of experiment: cell-based or functional assay.
As to “Chryseobacterium culicis propeptide F99K + N100T + E103V + R104K + G105E + D106E + S107N + K108R”, the Leakage activity came to 3%.
With “Chryseobacterium culicis propeptide F38C”, the NanoDSF thermal unfolding temperature amounted to 79.5 ° C.
Still for that read-out and setting: the value for “Chryseobacterium culicis propeptide Y94P” was 82.3 ° C.

Another assay addresses T1, Chryseobacterium defluvii deamidase polypeptide, wildtype, with His-tag (Chryseobacterium defluvii). As to the kind of experiment: cell-based or functional assay.
Molecule B1 returned a NanoDSF thermal unfolding temperature of 80.4 ° C.
With B2, the NanoDSF thermal unfolding temperature was 82 ° C.
Turning to B3, the NanoDSF thermal unfolding temperature amounted to 79.8 ° C.
In turn, B4 had a NanoDSF thermal unfolding temperature of 80.5 ° C.

The next assay addresses T2, Chryseobacterium sp-62563 deamidase polypeptide (second polypeptide, deamidase domain), wildtype (Chryseobacterium sp-62563). Description: cell-based or functional assay.
The molecule B5 registered a Leakage activity of 0% and a Relative activity of maturated deamidase (% initial rate) of 27.
As for B6, the Relative activity of maturated deamidase (% initial rate) came out at 54.
As to B7, the Leakage activity was determined as 0%.
On the same count and under the same terms, the value for B8 was 0%.
The molecule B9 yielded a Relative activity of maturated deamidase (% initial rate) of 29.
For the molecule B10, the Relative activity of maturated deamidase (% initial rate) came out at 75.
The same measure, in the same setting: with B11 the figure was 29; with B12, 34.
In turn, B13 gave a Leakage activity of 0%.
Consider B14, for which the Leakage activity came to 0%.
The molecule B15 came in with a Leakage activity of 0%.
Regarding B16, the Relative activity of maturated deamidase (% initial rate) was 36.
As for B17, the Leakage activity amounted to 0% and the Relative activity of maturated deamidase (% initial rate) is 62.
Consider B18, for which the Relative activity of maturated deamidase (% initial rate) is 46.
In turn, B19 displayed a Relative activity of maturated deamidase (% initial rate) of 46.
B20 gave a Relative activity of maturated deamidase (% initial rate) of 38.
As to B21, the Leakage activity amounted to 0%.
B22 yielded a Leakage activity of 0% and a Relative activity of maturated deamidase (% initial rate) of 29.
For B23, the Relative activity of maturated deamidase (% initial rate) was found to be 79.
In turn, B24 gave a Leakage activity of 0% and a Relative activity of maturated deamidase (% initial rate) of 51.
In turn, B25 returned a Leakage activity of 3% and a Relative activity of maturated deamidase (% initial rate) of 71.
B26 returned a Relative activity of maturated deamidase (% initial rate) of 38.
In the case of B27, the Leakage activity turned out to be 0% and the Relative activity of maturated deamidase (% initial rate) was found to be 27.
In turn, B28 had a Relative activity of maturated deamidase (% initial rate) of 45.
Take B29: the Leakage activity was 0% and the Relative activity of maturated deamidase (% initial rate) came out at 34.
As to B30, the Relative activity of maturated deamidase (% initial rate) was found to be 29.
Turning to B31, the Leakage activity is 0% and the Relative activity of maturated deamidase (% initial rate) amounted to 66.
In the same order, the values of B32 are 5% and 37.
B33 showed a Relative activity of maturated deamidase (% initial rate) of 33.
The same measure, in the same setting: the value for B34 was 41; that for B35 was 36.

A further assay deals with T3, Chryseobacterium gambrini deamidase polypeptide, wildtype, with His-tag (Chryseobacterium gambrini). As to the kind of experiment: cell-based or functional assay.
In turn, B36 yielded a NanoDSF thermal unfolding temperature of 77.2 ° C.
On the same count and under the same terms, the value for B37 was 78.4 ° C; that for B38 was 82.3 ° C.
On the same count and under the same terms, the value for B39 was 81.1 ° C; that for B40 was 79.3 ° C.
The same measure, in the same setting: the value for B41 was 69.3 ° C.
Take B42: the NanoDSF thermal unfolding temperature came to 70.4 ° C.

The values above are taken from US20250215412A1 (NOVOZYMES A S, published 2025).
